Numbering of substitutions follows the chain as printed.
B1: 4-L4-A (antibody, V domains shown)
VH: QAYLQQSGAELVRPGASVKMSCKASGYTFTSYTVHWVKQTPRQGLEWIGGIYPGNVDTSYNQNFKGKATLTVDKSSSTAYMQLSSLTSEDSAVYFCARDGYYAMDYWGQGTSVTVSS
VL: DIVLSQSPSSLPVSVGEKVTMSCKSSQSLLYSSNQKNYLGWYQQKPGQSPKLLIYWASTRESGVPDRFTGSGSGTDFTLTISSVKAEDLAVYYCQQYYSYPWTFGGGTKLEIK
B2: 4-C22-A (antibody, V domains shown)
VH: EVQLVESGGDLVKPGGSLKLSCAASGFTFSSFGMSWVRQTPDKRLEWVATISSGGGFTYYPDSVEGRFTISRDNAKNTLYLQMSSLKSEDTAMYYCARRLYDYDWFAYWGQGTLVTVSA
VL: DIVMTQSHKIMSTSVGDRVSITCKASQDVVTAVAWYQKKPGQSPKLLIHWASTRHTGVPDRFTGSGSGTDFTLTISNVQSEDLADYFCQQYSSYPLTFGAGTKLELK
B3: 1-L10-A (antibody, V domains shown)
VH: EVKLEESGGGLVQPGGSMKLSCVASGFTFNNYWMNWVRQSPEKGLEWVAQMRLKSDNYATHYAESVKGRFTISRDDSKSSVYLQMNNLRAEDTGIYYCIEGYWTYWGQGTLVTVSA
VL: QIVLTQSPAIMSASLGERVTMTCTASSSVSSSYLHWYQQKPGSSPKLWIYSTSNLASGVPARFSGNGSGTSYSLTISSMEAEDAATYYCLQYHRSPPYTFGGGTKLEIK
B4: 9-G24-A (antibody, V domains shown)
VH: QVQLQQSGAELVRPGASVKLSCKASGYTFTDYEMHWVKQTPVHGLEWIGVIDPETGDTAYNQKFKDKATLTADKSSSTAYMELRSLTSEDSAVYYCARRRDYGNPYWYFDVWGAGTAVTVSS
VL: EIVLTQSPALMAASPGEKVTITCSASSSISSSNLHWYQQKSGTSPKPWIYGTSNLASGVPVRFSGSGSGTSYSLTISSMEAEDAATYVCQQWSNYPYTFGSGTKLEIK
B5: 3-K11-A (antibody, V domains shown)
VH: EVQLQQSGPELVKPGASVKMSCKASGYTFTSYVMHWVKQKPGQGLEWIGYINPYNDGTEYNEKFKGKATLTSDKSSSTAYMELSSLTSEDSAVYHCAREAYRYFDVWGTGTTVTVSS
VL: DIQMTQSPASLSVSVGETVTITCRASENIYSNLAWYQQKQGKYPQLLVYGATNLADGVPSRFSGSGSGTQYFLKINSLQSEDFGSYYCQHFWGIPWTFGGGTKLEIK
B6: 2-B16-B (antibody, V domains shown)
VH: EVQLQQSGAELVRPGSSVKMSCKTSGYTFTSYGINWVKQRPGQGLEWIGYIYIGNGYTAYNEKFKGKATLTSDTSSSTAYMQLSSLTSEDSAIYFCARDGTRDAMDYWGQGTSVTVSS
VL: B5 VL with V13A, Y43S, G50A, Y71F, F72S, S80P, W92Y, G93S, I94S
B7: 6-N1-A (antibody, V domains shown)
VH: EVQLQQSGPELVKPGASVKISCKASGYTFTDYYMNWVQQSHGKSLEWIGDINPNNGGIRYNQNFKGKATLTVEKSSSTAYMELRSLTSEDSAVYYCARRQVFYDGYYDYAMDYWGQGTSVTVSS
VL: DIVLTQSPASLAVSLGQRATISCRASQSVSTSSYSYMHWYQQKPGQPPKLLIKYASNLESGVPARFSGSGSGTDFTLNIHPVEEEDTATYFCQHNWEIPPTFGGGTKLEIK
B8: 2-G20-A (antibody, V domains shown)
VH: EVQLQQSGPELVKPGASVKMSCKASGYTFPSYVLHWVKQKPGQGLEWIGYIYPYNDGTNYNEKFKGKATLTSDKSSSTAYMELSSLTSEDSAVYYCARGDYGDSAWFPYWGQGTLVTVSA
VL: DIVLTQSPASLAVSLGQRATISCRASKSVSTSGYSYMHWYQQKPGQPPKLLIYLASNLKSGVPARFSGGGSGTDFTLNIHPVEEEDAATYYCQLSRELPWTFGGGTKLEIK
B9: 6-O12-A (antibody, V domains shown)
VH: QVQLQQPGTELVKPGASVKLSCKASGYTFTSYWMHWVKQRPGQGLEWIGNINPSNGGTNYNEKFRSKATLTVDKSSSTAYMQLSSLTSEDSAVYYCARLGWFLPLGSWGQGTTLTVSS
VL: QIVLTQSPAIMSASLGEVITLTCSASSSVSYMHWYQQKSGTSPKLLIYSTSNLASGVPSRFSGSGSGTFYSLTISSVEAEDAADYYCHQWSGYMYTFGGGTKLEIK

Columns and labels:
Assay in all cases: ELISA
[1] = molecular target: T1, SARS-CoV-2 Beta (B.1.351) variant prefusion stabilized spike trimer protein (UniProt P0DTC2 14-1213)
[2] = molecular target: T1, SARS-CoV-2 Beta (B.1.351) variant …; remark: listed apart in the source
[3] = molecular target: SARS-CoV-2 B.1.1.529 spike trimer variant (SARS-CoV-2 B.1.1.529 (Omicron), UniProt P0DTC2 16-1213)

Row | Binder | IC50 [1] | EC50 [2] | EC50 [3]
1 | B1 | 5.99 nM | – | –
2 | B2 | – | 0.53 nM | –
3 | B3 | 10.8 nM | – | –
4 | B4 | – | 0.56 nM | –
5 | B5 | – | 2.87 nM | 20.6 nM
6 | B6 | – | 0.27 nM | –
7 | B7 | – | 5.29 nM | –
8 | B8 | 18.6 nM | – | –
9 | B9 | 7.76 nM | – | –
